Test results as given in publication doi:10.1101/503680 (bioRxiv, 2018).

Target: His6-KIF3A-motor (mouse, UniProt P28741 1-350)
Experiment: SPR

Chain of His6-KIF3A-motor (P28741 1-350): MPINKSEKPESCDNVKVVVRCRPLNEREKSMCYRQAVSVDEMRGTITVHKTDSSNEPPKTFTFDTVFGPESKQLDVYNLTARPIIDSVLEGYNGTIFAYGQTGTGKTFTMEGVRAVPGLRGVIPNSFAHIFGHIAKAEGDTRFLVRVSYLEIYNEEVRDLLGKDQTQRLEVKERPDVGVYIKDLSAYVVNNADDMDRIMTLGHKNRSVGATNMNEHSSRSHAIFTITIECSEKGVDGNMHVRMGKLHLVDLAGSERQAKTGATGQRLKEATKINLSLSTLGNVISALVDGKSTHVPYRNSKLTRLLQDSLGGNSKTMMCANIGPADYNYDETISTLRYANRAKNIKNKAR

B1: GST-KIF3A-S689A-Tail (domain or fragment, mouse, UniProt P28741 598-701, looked up)
chain: IPQDYQEMIENYVHWNEDIGEWQLKCVAYTGNNMRKQTPVPDKKERDPFEVDLSHVYLAYTEESLRQSLMKLERPRTSKGKARPKMGRRKRAAKPETVIDSLLQ
Kd: 48.4 nM
